{"source": "patent US7820790B2", "about": "“IL-6 binding proteins” (Amgen Mountain View Inc., priority 2005, dated 2010)", "key": {"[1]": {"target": "T1, IL-6R (Homo sapiens, UniProt P08887)", "T1 sequence (P08887 20-468)": "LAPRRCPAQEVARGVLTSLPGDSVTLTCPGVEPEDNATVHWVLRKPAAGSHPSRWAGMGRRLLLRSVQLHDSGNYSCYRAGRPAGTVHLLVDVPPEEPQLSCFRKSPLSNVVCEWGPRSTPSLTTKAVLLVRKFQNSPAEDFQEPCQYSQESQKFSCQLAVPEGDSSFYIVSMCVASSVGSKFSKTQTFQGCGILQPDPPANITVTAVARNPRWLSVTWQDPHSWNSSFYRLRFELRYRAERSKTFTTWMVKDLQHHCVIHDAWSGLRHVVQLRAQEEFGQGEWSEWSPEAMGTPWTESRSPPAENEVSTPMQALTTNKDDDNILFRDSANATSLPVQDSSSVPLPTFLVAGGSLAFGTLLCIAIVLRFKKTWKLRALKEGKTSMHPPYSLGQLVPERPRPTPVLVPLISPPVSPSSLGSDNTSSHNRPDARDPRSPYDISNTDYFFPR", "details": "dose-dependent manner; Nishimoto et al; cited from earlier work"}, "[2]": {"test_system": "TF-1 cells", "assay": "Stimulation of TF-1 cell proliferation by rhIL-6 (control experiments)", "type": "cell-based, human", "experimental": "TF-1, a GM-CSF dependent human erythroleukemia cell line, was purchased from ATCC(CRL-2003). IL-6 is a potent stimulator of TF-1 cell proliferation. The use of TF-1 cells for determining efficacy of IL-6, IL-6R, and/or gp130 inhibitors is well-established in the art.\nTF-1 cells were maintained in growth medium (RPMI 1640 supplemented with 50 uM 2-ME, antibiotic-antimycotic), 10% FBS and 5 ng/ml hGM-CSF (Leukine). Prior to assay, TF-1 cells were washed and cultured overnight in growth medium plus 1% FBS and Leukine. TF-1 cells were then washed three times with growth medium plus 1% FBS, without Leukine prior to the assay.\nTF-1 cells (1×10^4/well) were cultured in the presence or absence of the anti-IL-6 inhibitors-hIL-6 mixture in a 96-well flat bottom plate (Becton Dickinson) in a final volume of 200 ul/well for 40 hr in a humidified incubator at 37° C., 5% CO2. Cells were pulse-labeled with 1 uCi/well of [^3H]-Thymidine (Amersham Biosciences) during the final 16 hr of culture. Plates were harvested with a semiautomatic cell harvester (Tomtec, Inc.) and [^3H]-Thymidine incorporation was measured using a Microbeta-counter (Wallac-Perkin Elmer). Results are expressed as average cpm from triplicate wells.\nControl experiments determined 0.2 ng/mL as the EC50 of rhIL-6 for stimulation of TF-1 cell proliferation."}, "[3]": {"test_system": "Human heparinized-whole blood", "assay": "IL-6 stimulation of IgE in human whole blood", "type": "cell-based", "details": "50 ng/ml IL-6, 6.5 hr; compared to unstimulated controls or anti-IL-6 mAb controls", "experimental": "Human heparinized-whole blood was obtained from six normal individuals from Stanford University Blood Bank. The avimer used in these experiments was generated as described in the above examples.\nBriefly, 500 ul of heparinized human blood from several donors was cultured in 12×75 mm tubes or individual wells of a 24 well plate in the presence of 50 ng/ml of human IL-6; exemplary IL-6/IgG binding tetramers, a negative control avimer, 0.01-600 nM; anti-IL-6 monoclonal antibody (Clone 6708-111, R&D Systems) or mouse IgG1 isotype control antibody (eBioscience), 3, 10 or 30 ug/ml, or no inhibitors. Inhibitors or controls were diluted in RPMI1640+10% human AB serum before addition to the cultures. Final volume was 1 ml per sample.\nSamples were incubated for 6.5 hr at 37° C. with 5% CO2. Samples were removed from incubator and centrifuged at 1500 rpm for 10 minutes at room temperature. Plasma samples were divided in two portions and one set was shipped to Rules Based Medicine for determination of the concentrations of IL-6- and avimer-regulated analytes. The second set of plasma samples was stored at −80° C."}}}
{"substance": "MRA: humanized anti-IL-6R antibody (MRA)", "values": [{"measurement": "HDL increase", "setting": "[1]", "result": "~26", "unit": "%"}, {"measurement": "LDL increase", "setting": "[1]", "result": "12-23%"}]}
{"substance": "rhIL-6: recombinant human IL-6 (R&D Systems)", "values": [{"measurement": "EC50 for stimulation of TF-1 cell proliferation", "setting": "[2]", "result": 0.2, "unit": "ng/mL"}, {"measurement": "increase of IgE concentration in supernatants", "setting": "[3]", "result": "2-3 fold"}]}
